# Data taken from the supplement of paper PMC9170038.
# Test system: MS2 coat protein
# Test: apparent KD of MS2 coat protein; designed switch direction (-1 OFF switch, 1 ON switch): -1; higher = weaker reporter binding
# Procedure, shortened: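 Designed RNA switches sharing common flanks were transcribed on Illumina chips by stalled E. coli RNA polymerase. They were titrated with SNAP-549-labelled MS2 coat protein, from 0.7 or 1.5 nM doubling to 3 µM, in Tris-HCl pH 7.5 buffer with KCl, MgCl2, BSA, DTT, tRNA and Tween-20. Titrations ran without input, with 200 uM small-molecule ligand, or with an oligonucleotide input. The apparent KD of each design is the median over its clusters, after curve-fitting of normalised cluster fluorescence.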
# [1] = Eterna round: R95, input ligand: microRNA oligo, concentration not stated
# [2] = input ligand: microRNA oligo, concentration not stated
# [3] = Eterna round: R95, input ligand: FMN 200 uM
# [4] = Eterna round: R95, input ligand: none
Sequence,apparent KD of MS2 coat protein [1],apparent KD of MS2 coat protein (input ligand: FMN 200 uM),apparent KD of MS2 coat protein (input ligand: none),also measured
CUUUCUUGCAAGGAUAUGCAAUUUAUUAUUUAUGCAGAAGGUGCUACAUGAGGAUCACCCAUGUUUCUGGGUUU [JR_E6_Sub045] (puzzle: Exclusion 6),0.124 µM,–,–,–
CUUUUGUGAGGAUAUCAGUAGUAAAAUAAUAAAAUAACUACUGAGAAGGCACAUGAGGAUCACCCAUGUUCCUC [Mat - Exclusion 4 - Mod of Salish - D73] (puzzle: Exclusion 4),0.0339 µM,–,–,–
CUUUUGUGAGGAUAUCAGUAGUAAUACAAUAGUAUUAUUACUGAGAAGGCACAUGAGGAUCACCCAUGUUCCUC [Ex4 344 Omei mod 7] (puzzle: Exclusion 4),0.0386 µM,–,–,–
CUUUUGUGAGGAUAUCAGUGGUAAAACAAUAGUAUUACUACUGAGAAGGCACAUGAGGAUCACCCAUGUUCCUC [Mat - Exclusion 4 - Mod of Omei - D85] (puzzle: Exclusion 4),0.0427 µM,–,–,–
"CUUUUGUGAGGAUAUGGUAACGUUUACAUGAGGAUCACCCAUGUUUCAUGGGACUUGAGACUAGAAGGCACUAACG [JR_Ex5_Sub027] (Eterna round: R97, puzzle: Exclusion 5)",–,0.516 µM,0.823 µM,–
"CUUUUGUGAGGAUAUUCGUAGUAGGGUCAUGGUACUAUUACGGAGAAGGCACAUGAGGAUCACCCAUGUACCUU [EX4 #44] (Eterna round: R97, puzzle: Exclusion 4)",–,0.025 µM,0.0158 µM,–
"GAAAAACAUGAGGAUCACCCAUGUAAGGAUAUGCUGAAAAAACACUGGAAACAGUGCAGCAGAAGGUACAAAAG [Mat - Exclusion 1 - Eli mod - D100] (Eterna round: R96, puzzle: Exclusion 1)",–,–,–,apparent KD of MS2 coat protein [2]: 0.0476 µM
"GAAAACGCAGAGGAUAUAUCAGAUCAAAGCUGCAUAGAAGGCUGCACAUGAGGAUCACCCAUGUGGUCUUUAAU [Mat - Exclusion 6 - JL Mod - D1] (Eterna round: R97, puzzle: Exclusion 6)",–,0.237 µM,0.024 µM,–
"GAAAAGGCAGAGGAUAUUUCAGGUCAAAGCUGCAAAGAAGGCUGCACAUGAGGAUCACCCAUGUGGUCUUAAAA [Mod of Quesina 6 - Jieux - Exclusion 6] (Eterna round: R97, puzzle: Exclusion 6)",–,0.15 µM,0.0226 µM,–
"GAAAAGGUAGAGGAUAUUUCAGAUCAAAGCUGCAAAGAAGGCUGCACAUGAGGAUCACCCAUGUGGUCUUCAAA [Mod of Quesina 9 - Jieux - Exclusion 6] (Eterna round: R97, puzzle: Exclusion 6)",–,0.121 µM,0.0197 µM,–
GAAAAGGUAGGAUAUACGAAAAAAAAGGGUAGAAAAAAAACACAUGAGGAUCACCCAUGUAGAAGGACCAAAAC [salish99_ex2_r3_052] (puzzle: Exclusion 2),0.0353 µM,–,–,apparent KD of MS2 coat protein [3]: 0.0947 µM; apparent KD of MS2 coat protein [4]: 0.0278 µM
GAAAAGGUAGGAUAUACGAAAAAAAAGGGUAGAAAAAAAAGACAUGAGGAUCACCCAUGUAGAAGGACCAAAAG [salish99_ex2_r3_061] (puzzle: Exclusion 2),0.0365 µM,–,–,apparent KD of MS2 coat protein [3]: 0.0766 µM; apparent KD of MS2 coat protein [4]: 0.0271 µM
GAAAAGGUAGGAUAUACGAAAAAAAAGGUUAGAAAAAAAACACAUGAGGAUCACCCAUGUAGAAGGACCAAAAG [salish99_ex2_r3_067] (puzzle: Exclusion 2),0.0218 µM,–,–,apparent KD of MS2 coat protein [3]: 0.0174 µM; apparent KD of MS2 coat protein [4]: 0.0178 µM
GAAAAGGUAGGAUAUACGAGAAGAAAGGGUAGAGAAGAAACACAUGAGGAUCACCCAUGUAGAAGGACCAAAAG [salish99_ex2_r3_099] (puzzle: Exclusion 2),0.0299 µM,–,–,apparent KD of MS2 coat protein [3]: 0.0667 µM; apparent KD of MS2 coat protein [4]: 0.0299 µM
GAAAAGGUAGGAUAUACUAAAAAAAAGGGUAGAAAAAAAACACAUGAGGAUCACCCAUGUAGAAGGACCAAAAG [salish99_ex2_r3_058] (puzzle: Exclusion 2),0.0318 µM,–,–,apparent KD of MS2 coat protein [3]: 0.0482 µM; apparent KD of MS2 coat protein [4]: 0.0208 µM
"GAAACCAGAGGAUAUGCGAAUAAAUAAAACUUUUUUUUUUAACAUGAGGAUCACCCAUGUAGAAGGCUGCAAAG [Ex2 #35] (Eterna round: R97, puzzle: Exclusion 2)",–,0.032 µM,0.031 µM,–
"GAAAGACAUGAGGAUCACCCAUGUCAGGAUAUGAUGCCAGCGUAGCUAGUAGGUUUUGUCAGAAGGGACGGGUU [Eternabot (L1) Solution 70] (Eterna round: R97, puzzle: Exclusion 1)",–,0.0322 µM,0.0274 µM,–
GAAAUGGUAGGAUAUACGAAAAAAAAGGGUAGAAAAAAAACACAUGAGGAUCACCCAUGUAGAAGGACCAAAAG [salish99_ex2_r3_088] (puzzle: Exclusion 2),0.0319 µM,–,–,apparent KD of MS2 coat protein [3]: 0.0714 µM; apparent KD of MS2 coat protein [4]: 0.0284 µM

Sequence,apparent KD of MS2 coat protein [1],apparent KD of MS2 coat protein (input ligand: FMN 200 uM),apparent KD of MS2 coat protein (input ligand: none),also measured
"GAACUAAGGCAAAGCUUUAGUCGUACAUGAGGAUCACCCAUGUAGGAUAUGGUAGGCAAAGCAUACCAGAAGGACAGAGUGAUC [Mat - Exclusion NG 3 - Mod of JL - D62] (Eterna round: R96, puzzle: Exclusion NG 3)",–,0.387 µM,0.22 µM,apparent KD of MS2 coat protein [2]: 0.363 µM
"GAAGAAAAGGCAGGAUAUCAGAAACACAUGAUAAGGAGAUGCAACAUGAGGAUCACCCAUGUAAAUGAGAAGGGCCGCCCUUCC [Arbiis] (Eterna round: R96, puzzle: Exclusion NG 2)",–,–,–,apparent KD of MS2 coat protein [2]: 0.028 µM
"GAAGAUCGAGUUAGGAUAUGAUUACUAUCCGAAAAUCAGAAGGAACUUGAGGAUCACCCAAGUAAAGAAGAAAU [JR_BMEx4_Sub051] (Eterna round: R97, puzzle: Brourd's mod of Exclusion 4)",–,0.0229 µM,0.0165 µM,–
"GAAGAUCGAGUUAGGAUAUGAUUACUAUCCGAAAAUCAGAAGGAACUUGAGGAUCACCCAAGUUUAGAAGAAAU [JR_BMEx4_Sub052] (Eterna round: R97, puzzle: Brourd's mod of Exclusion 4)",–,0.0182 µM,0.0147 µM,–
"GAAUAACAAGUGAGGAUAUGGAGUUGGGAGCCAGUUCAGAAGGCACAUGAGGAUCACCCAUGUGAACCGCAGCU [Eternabot (L2) Solution 45] (Eterna round: R97, puzzle: Brourd's mod of Exclusion 4)",–,0.0169 µM,0.0145 µM,–
"GAAUAGAGAGGAUAUGCGUAGUAGGUAGUAAGAUAUAUCUGACAUGAGGAUCACCCAUGUAGAAGGCUCAGAUC [EX2 #3] (Eterna round: R97, puzzle: Exclusion 2)",–,0.0401 µM,0.0352 µM,–
"GAAUAGCGAGGAUAUGCAAUGAAGAUCGUACGAUAUGGCUGACAUGAGGAUCACCCAUGUAGAAGGCGCUGAUC [EX2 #14] (Eterna round: R97, puzzle: Exclusion 2)",–,0.0551 µM,0.0537 µM,–
"GAAUCGACAGGAUAUACAUGAGGAUCACCCAUGUAGUCAGAGAUGAUACCUCAACCUAGUAGAAGGGUCAGCGG [Eternabot (L2) Solution 17] (Eterna round: R97, puzzle: Exclusion 3)",–,0.0455 µM,0.025 µM,–
"GAAUGAGAGCAGGAUAUCUUAUAAAUGUAUGAAAGAGAAGGGCUCACAUGAGGAUCACCCAUGUGGUCCUAGAA [jl-ex6-4.78 jandersonlee mod] (Eterna round: R97, puzzle: Exclusion 6)",–,0.506 µM,0.0369 µM,–
"GACAGGGCAGGAUAUCGAGAUCCGCACAUGAGGAUCACCCAUGUUCAGUCGAAAGACUGACGAGAAGGGCCGUGUC [Omei Ex5 E4] (Eterna round: R97, puzzle: Exclusion 5)",–,1.19 µM,1.39 µM,–
"GACCCGUCAGGAUAUACAUGAGGAUCACCCAUGUAAUCAGCGAUAGGACAAGGCUCACGUAGAAGGGACAGGGU [Eternabot (L1) Solution 33] (Eterna round: R97, puzzle: Exclusion 3)",–,0.0446 µM,0.0228 µM,–
"GACCCUAGGGUCAGAUGCACAAGCUUUUUGCUCGUUUUAACAUGAGGAUCACCCAUGUCUAGUGGAUCUGAUCGGGC [Erorente] (puzzle: Sensor v3, turn-off variant 2)",0.0888 µM,–,–,apparent KD of MS2 coat protein [3]: 0.0206 µM; apparent KD of MS2 coat protein [4]: 0.0182 µM
"GACCGGUAAGGAUAUGUAUCUUUCAGGACACUACCGAAGAUGCAGAAGGUACAUGAGGAUCACCCAUGUGGGCU [Eternabot (L1) Solution 36] (Eterna round: R97, puzzle: Exclusion 4)",–,0.227 µM,0.0758 µM,–
"GACCUAUAGGUAGGAUAUCAUUGCGAUUAGCUAUGAGAAGGACCACAUGAGGAUCACCCAUGUCCUCUAAUUAGCCAUUUGGUC [Fiskers ExNg1 - 8] (Eterna round: R96, puzzle: Exclusion NG 1)",–,–,–,apparent KD of MS2 coat protein [2]: 0.338 µM
"GACCUUCCUGUAAGGAUAUCCAUGUAUCAAAGCAUGGAGAAGGUACAUGAGGAUCACCCAUGUCACCCGCGUUA (Eterna round: R97, puzzle: Brourd's mod of Exclusion 4)",–,0.0177 µM,0.0117 µM,–
GACUGCCGAGGAUAUACAUGAGGAUCACCCAUGUGCUUCAGCAUUUAAUAAUGCAUGGGUAGAAGGCGGUAGUC [LRO-Excl3-12] (puzzle: Exclusion 3),0.0405 µM,–,–,–
GACUGCCGAGGAUAUACAUGAGGAUCACCCAUGUGCUUCAGCAUUUUUUAAUGCAUGGGUAGAAGGCGGUAGUC [LRO-Excl3-13] (puzzle: Exclusion 3),0.0296 µM,–,–,–
"GACUGGACGUGGUCUGGUUACAUGAGGAUCACCCAUGUAGGUCUAAGAACAUGCCUUUUGUACGCUCGUCUUAUAUA [JR_SV3TOV1_Sub065] (puzzle: Sensor v3, turn-off variant 1)",0.0207 µM,–,–,apparent KD of MS2 coat protein [3]: 0.0379 µM; apparent KD of MS2 coat protein [4]: 0.0396 µM
